Data: article PMC2606963

Tests used:
[1] = target: dynamic microtubules grown in buffer from purified (tyrosinated) tubulin (pig) (UniProt P02550); experiment: single-molecule TIRF microscopy on dynamic microtubules
[2] = target: dynamic microtubules grown in buffer from detyrosinated tubulin (tubulinΔY) (pig) (UniProt P02550); experiment: TIRF microscopy on dynamic microtubules

mean single molecule dwell time at growing microtubule ends [1] [s]	percent reduction of end binding against microtubules of tyrosinated tubulin [2] [%]	mean dwell time at growing microtubule ends [1] [s]	Substance
0.05	–	–	EB1-GFP (full-length X. laevis EB1 fused to GFP) (natural protein)
–	87	0.25	H2-GFP (GFP-tagged H2 fragment of CLIP-170) (domain or fragment)
